Experimental data published in US20100310573A1 (Kyowa Kirin, published 2010).
Numbering of substitutions follows the chain as printed.

Assays:
[1] = target: T1, recombinant human CD4 (catalogue number: 514-CD/CF, manufactured by R&D Systems) (human, UniProt P01730 26-390); assay: SPR, Biacore T100; antibody captured on anti-human IgG chip, recombinant human CD4 flowed; 1:1 binding model
T1 construct: Bought protein (R&D Systems); also called recombinant CD4
Description: (§1) In order to kinetically analyze the binding activity of anti-CD4 chimeric antibodies KM4045 to KM4049, 6G5-1 and 6G5-P to recombinant human CD4, the binding activity was measured by surface plasmon resonance method (SPR). All of the following manipulations were carried out using a Biacore T100 (manufactured by GE Healthcare Bio-Sciences). The anti-human IgG antibody was immobilized on a CM5 sensor chip (manufactured by GE Healthcare Bio-Sciences) by an amine coupling method using a Human Antibody Capture Kit (manufactured by GE Healthcare Bio-Sciences) in accordance with the protocols attached thereto. An assay sample (anti-CD4 chimeric antibodies KM4045 to KM4049) was added to be captured on the anti-human IgG antibody-immobilized chip to give 100 RU (resonance unit). Thereafter, the recombinant human CD4 (manufactured by R&D) diluted from 2500 ng/mL in five steps was allowed to run at a flow rate of 30 μL/min onto the chip, and the sensorgram corresponding to each concentration was obtained. The analysis was carried out in the 1:1 binding model using an analysis software attached to the apparatus, Biacore T100 Evaluation software (manufactured by Biacore), thereby calculating an association rate constant ka and a dissociation rate constant kd of respective antibodies for human CD4.
As a result, an association rate constant ka, a dissociation rate constant kd, and a dissociation constant KD (kd/ka) of individual antibodies thus obtained are given in Table 5.

[2] = target: T1, recombinant human CD4 (catalogue …); assay: as above; remark: listed apart in the source
Description: as §1
The measurement of a binding activity was carried out according to the method described in Example 7(2). The association rate constant ka, the dissociation rate constant kd and the dissociation constant KD (kd/ka) of respective antibodies thus obtained are shown in Table 6.

[3] = target: T1, recombinant human CD4 (catalogue …); assay: SPR, Biacore T100; antibody captured on anti-human IgG chip, recombinant human CD4 flowed; 1:1 binding model; kd beyond the maker's measurable limit
Description: as §1, with “CD4. […]” for “CD4.”

[4] = target: T1, recombinant human CD4 (catalogue …); assay: SPR, Biacore T100; antibody captured on anti-human IgG chip, recombinant human CD4 flowed; 1:1 binding model; value beyond the maker's measurable limit (1 × 10^-5)
Description: as §1, with “CD4. […]” for “CD4.”

[5] = target: T1, recombinant human CD4 (catalogue …); assay: SPR, Biacore T100; antibody captured on anti-mouse IgG chip, recombinant human CD4 flowed; 1:1 binding model
Description: In order to kinetically analyze the binding activity of anti-CD4 rat monoclonal antibodies KM4065 to KM4069 and commercially available anti-human CD4 mouse antibody for recombinant human CD4, the binding activity was measured by surface plasmon resonance method (SPR). All of the following manipulations were carried out using the Biacore T100 (manufactured by GE Healthcare Bio-Sciences). The anti-mouse IgG antibody was immobilized on a CM5 sensor chip (manufactured by GE Healthcare Bio-Sciences) by an amine coupling method using a Mouse Antibody Capture Kit (manufactured by GE Healthcare Bio-Sciences) in accordance with the protocols attached thereto. Anti-CD4 rat monoclonal antibodies KM4065 to KM4069, Leu-3a (BD Biosciences), OKT4 (BioLegend) and 13B8.2 (Beckman Coulter) were added to be captured on the anti-mouse IgG antibody-immobilized chip to give 100 RU (resonance unit), respectively. Thereafter, the recombinant human CD4 (manufactured by R&D) diluted from 2500 ng/mL in five steps was allowed to run at a flow rate of 30 μL/min onto the chip, and the sensorgram corresponding to each concentration was obtained. The analysis was carried out in the 1:1 binding model using an analysis software attached to the apparatus, thereby calculating an association rate constant ka and a dissociation rate constant kd of individual antibodies for the human CD4.
As a result, an association rate constant (hereinafter, referred to as “ka”), a dissociation rate constant (hereinafter, referred to as “kd”) and a dissociation constant KD (kd/ka) of individual antibodies thus obtained are given in Table 2.

[6] = target: T1, recombinant human CD4 (catalogue …); assay: Biacore T100
[7] = target: T1, recombinant human CD4 (catalogue …); assay: SPR, Biacore T100; summary sentence to Table 6

B1: anti-CD4 chimeric antibody KM4045 (antibody, V domains shown)
VH: EVQLVESGGGLVQPGRSMKLSCAASGFTFSNYGMAWVRQAPTKGLEWVATISYDGSITYYRDSVKGRFTISRDHAKSTLYLQMNSLRSEDTATYYCTREEQYSSWYFDFWGPGIMVTVSS
VL: DIVLTQSPALAVSLGQRATISCRASQSVSISSHDLMQWYQQKPGQQPKLLIYDAFNLASGIPVRFSGSGSGTDFTLTIDPVQADDIATYYCQQSKDDPYTFGAGTKLELK
notes: Variable regions of rat KM4065 joined to a '113F type' heavy chain constant region and a human kappa constant region; In the 113F type, part of the human IgG1 Fc is substituted with human IgG3 Fc (US2007/0148165); Expressed in FUT8 knockout CHO cells (0% fucose)
Question: With B1 as the binder, how does the kon [1] read?
Answer: 360000 M⁻¹ s⁻¹

Question: And the Kd [2]?
Answer: < 18.4 pM

Question: And the koff [2]?
Answer: < 1e-05 s⁻¹

Question: And the kon [2]?
Answer: 541000 M⁻¹ s⁻¹

Question: What about the Kd [3] of the same binder?
Answer: ≤ 0.0824 pM

Question: And the koff [4]?
Answer: < 1e-05 s⁻¹

B2: anti-CD4 rat monoclonal antibody KM4065 (antibody, V domains shown)
VH: B1 VH
VL: B1 VL
notes: Rat hybridoma IgG with a kappa light chain
Question: For B2, which Kd [5] is on record?
Answer: 4.26 pM

Question: What about the koff [5] of the same binder?
Answer: 1.52e-06 s⁻¹

Question: What about the kon [5] of the same binder?
Answer: 357000 M⁻¹ s⁻¹

B3: anti-CD4 rat monoclonal antibody KM4066 (antibody, V domains shown)
VH: EVQLEESGGGLVQPGRSLKLSCLASGFTFSNYGMNWIRQAPGKGLEWVASISGSSTYIYYADTVKGRFTISRENAENTLYLQMTSLRSEDTALYYCAREGSSTDRYYEVSFAYWGQGTLVTVSS
VL: DVVLTQTPVSLSVTLGDQASISCRSSQSLEYSDGYTYLEWYLQKPGQSPQVLIYGVSNRFSGVPDRFIGSGSGTDFTLKISRVEPEDLGVYYCFQATHDPYTFGAGTRLELK
notes: as for B2
Question: Which Kd [5] does the source give for B3 here?
Answer: 88.2 pM

Question: And the koff [5]?
Answer: 0.000118 s⁻¹

Question: What about the kon [5] of the same binder?
Answer: 1.34e+06 M⁻¹ s⁻¹

B4: anti-CD4 rat monoclonal antibody KM4067 (antibody, V domains shown)
VH: QVKLLQSGAALVKPGASVKMSCKASGYTFTDYWVHWVKQSHGKSLEWIGEIYPNNNTTNFNEKFKGKATLTVDKFTSTAYMELSRLTSEDSAIYYCTRGTVYYGLGYFDHWGQGVMVTVSS
VL: DIRMTQSPASLSASLGETVNIECLASEDVYSDLAWYQQKPGKSPQLLIYNANNLQSGVPSRFSGSGSGTRYSLKINSLQSEDVATYFCQQYNNYPPYTFGAGTKLELK
notes: as for B2
Question: B4 was tested. Which Kd [5] did it give?
Answer: 541 pM

Question: What about the koff [5] of the same binder?
Answer: 0.000473 s⁻¹

Question: And the kon [5]?
Answer: 875000 M⁻¹ s⁻¹

B5: anti-CD4 rat monoclonal antibody KM4068 (antibody, V domains shown)
VH: QVQLKESGPGLVQPSQTLSLTCTVSGLSLTSNSVSWIRQPPGKGLEWMGIIWSNGDTDYNSAIKSRLSISRDTSKSQVFLKMNSLQTEDTAMYFCANPYYGYNFPFDYWGQGVMVTVSS
VL: DIQMTQSPASLSASLEEIVTITCKASQGIDNYLSWYQQKPGKSPQLLIYDATSLADGVPSRFSGSRSGTQYSLKISRPQVDDSGIYYCLQSYSTPFTFGSGTKLEIK
notes: as for B2
Question: Which Kd [5] does the source give for B5 here?
Answer: 1100 pM

Question: And the koff [5]?
Answer: 0.00204 s⁻¹

Question: What about the kon [5] of the same binder?
Answer: 1.85e+06 M⁻¹ s⁻¹

B6: anti-CD4 rat monoclonal antibody KM4069 (antibody, V domains shown)
VH: B5 VH with L27S, I50V, T57A, N97S, N103Y
VL: B5 VL with G28A, N31A
notes: as for B2
Question: For B6, which Kd [5] is on record?
Answer: 482 pM

Question: And the koff [5]?
Answer: 0.000584 s⁻¹

Question: And the kon [5]?
Answer: 1.21e+06 M⁻¹ s⁻¹

B7: anti-CD4 humanized antibody HV3LV0 (antibody, V domains shown)
VH: B1 VH with M18L, K19R, T42G, H74N, A75S, S77N, S88A, P112Q, M115L
VL: DIQLTQSPSSLSASVGDRVTITCRASQSVSISSHDLMQWYQQKPGKAPKLLIYDAFNLASGVPSRFSGSGSGTDFTLTISSLQPEDFATYYCQQSKDDPYTFGQGTKLEIK
notes: Expressed from the humanized antibody expression vector pKANTEX93
Question: How did the “binding activity relative to the anti-CD4 chimeric antibody KM4045” value [6] turn out when B7 was run?
Answer: 0.5 fold of KM4045

Question: And the Kd [7]?
Answer: ≤ 100 pM

Question: And the Kd [2]?
Answer: < 7.52 pM

Question: And the koff [2]?
Answer: < 1e-05 s⁻¹

Question: What about the kon [2] of the same binder?
Answer: 1.33e+06 M⁻¹ s⁻¹

B8: anti-CD4 humanized antibody HV0LV0 (antibody, V domains shown)
VH: EVQLVESGGGLVQPGRSLRLSCAASGFTFSNYGMAWVRQAPGKGLEWVATISYDGSITYYRDSVKGRFTISRDNSKNTLYLQMNSLRAEDTAVYYCAREEQYSSWYFDFWGQGTLVTVSS
VL: B7 VL
notes: CDRs of KM4065 grafted into human framework regions; Expressed from the humanized antibody expression vector pKANTEX93
Question: B8 was tested. Which Kd [7] did it give?
Answer: ≤ 100 pM

Question: And the Kd [2]?
Answer: 19.5 pM

Question: What about the koff [2] of the same binder?
Answer: 2.86e-05 s⁻¹

Question: What about the kon [2] of the same binder?
Answer: 1.47e+06 M⁻¹ s⁻¹

B9: anti-CD4 humanized antibody HV2LV0 (antibody, V domains shown)
VH: B8 VH with A97T, T114I
VL: B7 VL
notes: Expressed from the humanized antibody expression vector pKANTEX93; also called KM8045; humanized antibody KM8045
Question: Which “binding activity relative to the anti-CD4 chimeric antibody KM4045” value [6] does the source give for B9 here?
Answer: 0.5 fold of KM4045

Question: And the Kd [7]?
Answer: ≤ 100 pM

Question: What about the Kd [2] of the same binder?
Answer: < 8.77 pM

Question: What about the koff [2] of the same binder?
Answer: < 1e-05 s⁻¹

Question: And the kon [2]?
Answer: 1.14e+06 M⁻¹ s⁻¹

B10: anti-CD4 humanized antibody HV4LV0 (antibody, V domains shown)
VH: B8 VH with L18M, V93T, A97T, T114I
VL: B7 VL
notes: as for B7
Question: How did the “binding activity relative to the anti-CD4 chimeric antibody KM4045” value [6] turn out when B10 was run?
Answer: 0.5 fold of KM4045

Question: What about the Kd [7] of the same binder?
Answer: ≤ 100 pM

Question: What about the Kd [2] of the same binder?
Answer: < 12.6 pM

Question: And the koff [2]?
Answer: < 1e-05 s⁻¹

Question: What about the kon [2] of the same binder?
Answer: 791000 M⁻¹ s⁻¹

B11: anti-CD4 humanized antibody HV4LV6 (antibody, V domains shown)
VH: B8 VH with L18M, V93T, A97T, T114I
VL: B7 VL with A13V, V15L, V19A, A47Q, V62I, L82V
notes: as for B7
Question: Which “binding activity relative to the anti-CD4 chimeric antibody KM4045” value [6] does the source give for B11 here?
Answer: 0.5 fold of KM4045

Question: What about the Kd [7] of the same binder?
Answer: ≤ 100 pM

Question: And the Kd [2]?
Answer: < 24.8 pM

Question: What about the koff [2] of the same binder?
Answer: < 1e-05 s⁻¹

Question: And the kon [2]?
Answer: 403000 M⁻¹ s⁻¹
